Data as given in the supplement of paper PMC9112550, “Optimization of the antimicrobial peptide Bac7 by deep mutational scanning” (BMC Biology, 2022).

system: Escherichia coli TOP10; assay: shrunken log2 fold change of peptide-encoding DNA abundance (4.5 h post-induction vs induction); higher = less antimicrobial activity (less host growth inhibition); conditions: time post-induction: 4.5 h; library: site-saturation at positions 5, 18, 19, 20
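Note: peptides expressed intracellularly from a pBAD plasmid library in pooled LB shake-flask culture, induced with 0.3% L-arabinose, DNA abundance read by NGS, three biological replicates, DESeq2 with apeglm shrinkage.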

Row | Sequence | shrunken log2 fold change
1 | RRIRMRPPRLPRPRPRPQVCPRP | 0.0261
2 | RRIRERPPRLPRPRPRPWLKPRP | -0.24
3 | RRIRERPPRLPRPRPRPICAPRP | 0.0742
4 | RRIRVRPPRLPRPRPRPYQCPRP | -0.185
5 | RRIRPRPPRLPRPRPRPHIWPRP | -0.3
6 | RRIRKRPPRLPRPRPRPNHVPRP | 0.0656
7 | RRIRERPPRLPRPRPRPWKSPRP | -0.0163
8 | RRIRSRPPRLPRPRPRPSETPRP | -0.44
9 | RRIRQRPPRLPRPRPRPLASPRP | 0.00224
10 | RRIRSRPPRLPRPRPRPCSVPRP | 0.044
11 | RRIRERPPRLPRPRPRPVHQPRP | 0.107
12 | RRIRPRPPRLPRPRPRPAVLPRP | 0.163
13 | RRIRQRPPRLPRPRPRPFNVPRP | -0.375
14 | RRIRWRPPRLPRPRPRPNKQPRP | 0.103
15 | RRIRARPPRLPRPRPRPFHLPRP | -0.36
16 | RRIRGRPPRLPRPRPRPIELPRP | -0.0084
17 | RRIRNRPPRLPRPRPRPLKMPRP | -0.136
18 | RRIRRRPPRLPRPRPRPTADPRP | 0.808
19 | RRIRTRPPRLPRPRPRPRCVPRP | -0.0783
20 | RRIRIRPPRLPRPRPRPWLWPRP | -0.0533
21 | RRIRARPPRLPRPRPRPGAWPRP | 0.259
22 | RRIRCRPPRLPRPRPRPSGEPRP | 0.299
23 | RRIRTRPPRLPRPRPRPDDPPRP | -0.00805

Row | Sequence | shrunken log2 fold change
24 | RRIRNRPPRLPRPRPRPFGDPRP | 0.0215
25 | RRIRERPPRLPRPRPRPSESPRP | -0.577
26 | RRIRFRPPRLPRPRPRPSIFPRP | -0.579
27 | RRIRFRPPRLPRPRPRPCCPPRP | -0.468
28 | RRIRKRPPRLPRPRPRPGFFPRP | 0.786
29 | RRIRSRPPRLPRPRPRPRFVPRP | 0.129
30 | RRIRHRPPRLPRPRPRPFQFPRP | 0.0952
31 | RRIRLRPPRLPRPRPRPGWLPRP | 0.0878
32 | RRIRIRPPRLPRPRPRPMVYPRP | -0.136
33 | RRIRNRPPRLPRPRPRPKLVPRP | 0.163
34 | RRIRSRPPRLPRPRPRPNIMPRP | -0.49
35 | RRIRKRPPRLPRPRPRPHLVPRP | 0.0297
36 | RRIRPRPPRLPRPRPRPRKYPRP | -0.352
37 | RRIRTRPPRLPRPRPRPSNFPRP | -0.0603
38 | RRIRARPPRLPRPRPRPNMWPRP | 0.188
39 | RRIRPRPPRLPRPRPRPHACPRP | 0.00839
40 | RRIRNRPPRLPRPRPRPEAWPRP | -0.0397
41 | RRIRMRPPRLPRPRPRPWRMPRP | 0.0682
42 | RRIRTRPPRLPRPRPRPDNQPRP | -0.337
43 | RRIRTRPPRLPRPRPRPCAQPRP | -0.05
44 | RRIRFRPPRLPRPRPRPSRAPRP | 0.352
45 | RRIRQRPPRLPRPRPRPDPNPRP | -0.187
46 | RRIRIRPPRLPRPRPRPARWPRP | 0.412

Row | Sequence | shrunken log2 fold change
47 | RRIRIRPPRLPRPRPRPTLVPRP | 0.0386
48 | RRIRARPPRLPRPRPRPTYCPRP | -0.119
49 | RRIRLRPPRLPRPRPRPLVAPRP | 0.343
50 | RRIRYRPPRLPRPRPRPLKWPRP | -0.258
51 | RRIRVRPPRLPRPRPRPRIDPRP | -0.216
52 | RRIRCRPPRLPRPRPRPTGMPRP | -0.013
53 | RRIRRRPPRLPRPRPRPLARPRP | 0.153
54 | RRIRLRPPRLPRPRPRPMCSPRP | 0.382
55 | RRIRWRPPRLPRPRPRPCIPPRP | -0.0746
56 | RRIRHRPPRLPRPRPRPGNAPRP | 0.137
57 | RRIRMRPPRLPRPRPRPNYDPRP | -0.149
58 | RRIRRRPPRLPRPRPRPLKEPRP | 0.0888
59 | RRIRARPPRLPRPRPRPKDVPRP | 0.0479
60 | RRIRYRPPRLPRPRPRPGWTPRP | -0.103
61 | RRIRMRPPRLPRPRPRPASMPRP | 0.311
62 | RRIRLRPPRLPRPRPRPKSQPRP | 0.00795
63 | RRIRCRPPRLPRPRPRPINDPRP | -0.505
64 | RRIRNRPPRLPRPRPRPFDCPRP | 0.0101
65 | RRIRIRPPRLPRPRPRPPIAPRP | -0.109
66 | RRIRWRPPRLPRPRPRPVSTPRP | 0.138
67 | RRIRIRPPRLPRPRPRPLPDPRP | 0.0943
68 | RRIRGRPPRLPRPRPRPKPTPRP | 0.527
69 | RRIRIRPPRLPRPRPRPKTYPRP | -0.879

Row | Sequence | shrunken log2 fold change
70 | RRIRMRPPRLPRPRPRPWPSPRP | 0.034
71 | RRIRFRPPRLPRPRPRPEYMPRP | -0.421
72 | RRIRTRPPRLPRPRPRPWCAPRP | -0.203
73 | RRIRVRPPRLPRPRPRPLIKPRP | -0.206
74 | RRIRPRPPRLPRPRPRPGEPPRP | 0.0896
75 | RRIRYRPPRLPRPRPRPLRFPRP | -0.28
76 | RRIRRRPPRLPRPRPRPFPNPRP | 0.558
77 | RRIRLRPPRLPRPRPRPNKRPRP | -0.121
78 | RRIRCRPPRLPRPRPRPIDKPRP | -0.161
79 | RRIRTRPPRLPRPRPRPNMRPRP | 0.33
80 | RRIRPRPPRLPRPRPRPSVAPRP | 0.0839
81 | RRIRLRPPRLPRPRPRPNPEPRP | 0.0435
82 | RRIRVRPPRLPRPRPRPMIDPRP | -0.283
83 | RRIRFRPPRLPRPRPRPNSFPRP | -0.894
84 | RRIRCRPPRLPRPRPRPFQSPRP | -0.0129
85 | RRIRNRPPRLPRPRPRPIVEPRP | 0.0466
86 | RRIRRRPPRLPRPRPRPYLSPRP | -0.288
87 | RRIRDRPPRLPRPRPRPVRAPRP | 0.325
88 | RRIRVRPPRLPRPRPRPMCFPRP | -0.178
89 | RRIRTRPPRLPRPRPRPFPLPRP | -0.147
90 | RRIRVRPPRLPRPRPRPNDEPRP | -0.352
91 | RRIRKRPPRLPRPRPRPLLEPRP | 0.241
